Experimental data as given in US20110207628A1 (UNIVERSITY OF MIAMI, published 2011).

What was measured:
[1] = target: T1, FLAG-tubby-F (full-length mouse tubby with N-terminal FLAG tag) (mouse, UniProt P50586 1-505); experiment: GST pull-down: GST-tubby with lysate of cells expressing the FLAG-tagged protein, glutathione resin, Western blot with anti-FLAG mAb
T1 construct: mature; also called FLAG-tagged tubby; tubby-vesicles
T1 sequence: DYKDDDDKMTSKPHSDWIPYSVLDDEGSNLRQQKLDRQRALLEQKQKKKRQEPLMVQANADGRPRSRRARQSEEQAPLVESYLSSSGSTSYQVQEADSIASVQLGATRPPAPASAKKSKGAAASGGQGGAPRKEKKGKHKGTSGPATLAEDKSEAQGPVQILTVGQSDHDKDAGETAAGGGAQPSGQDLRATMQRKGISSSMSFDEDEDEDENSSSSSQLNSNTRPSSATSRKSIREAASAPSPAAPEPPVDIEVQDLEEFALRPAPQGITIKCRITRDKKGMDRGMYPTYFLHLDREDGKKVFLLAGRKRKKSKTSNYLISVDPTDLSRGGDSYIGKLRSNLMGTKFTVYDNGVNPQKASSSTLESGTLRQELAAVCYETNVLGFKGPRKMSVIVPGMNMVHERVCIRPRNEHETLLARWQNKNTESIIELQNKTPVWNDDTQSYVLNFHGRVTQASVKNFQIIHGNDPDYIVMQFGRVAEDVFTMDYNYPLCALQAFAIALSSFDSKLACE

[2] = target: T2, FLAG-tagged Tulp2 (full-length mouse Tulp2 with N-terminal FLAG tag) (mouse, UniProt P46686 1-562); experiment: as above
T2 construct: mature; Expressed from pcDNA3 in Neuro-2a cells; used as cell lysate or on membrane vesicles
T2 sequence: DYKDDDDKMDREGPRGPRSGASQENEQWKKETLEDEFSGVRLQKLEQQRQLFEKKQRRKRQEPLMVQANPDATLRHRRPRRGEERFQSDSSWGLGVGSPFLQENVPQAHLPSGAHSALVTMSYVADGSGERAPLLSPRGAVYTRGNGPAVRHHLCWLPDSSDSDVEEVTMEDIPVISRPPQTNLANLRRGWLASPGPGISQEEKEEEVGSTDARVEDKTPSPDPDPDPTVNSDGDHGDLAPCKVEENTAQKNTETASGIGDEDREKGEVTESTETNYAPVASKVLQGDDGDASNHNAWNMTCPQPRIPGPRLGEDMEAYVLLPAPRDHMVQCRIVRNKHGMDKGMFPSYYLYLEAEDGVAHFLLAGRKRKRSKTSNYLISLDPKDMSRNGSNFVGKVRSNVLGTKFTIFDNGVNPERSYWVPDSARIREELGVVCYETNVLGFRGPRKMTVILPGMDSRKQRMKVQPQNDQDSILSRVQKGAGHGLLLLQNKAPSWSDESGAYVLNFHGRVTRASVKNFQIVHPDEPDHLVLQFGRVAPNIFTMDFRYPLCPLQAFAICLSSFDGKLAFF

[3] = target: T3, tubby-N (N-terminus of mouse tubby, 1M-242P), GST-free (mouse, UniProt P50586 1-242); experiment: clonal phage on immobilized tubby-N, plaque assay
T3 construct: range 1-242; Expressed as GST-tubby-N in E. coli BL21(DE3), GST removed by 3C protease cleavage; also called GST-free tubby-N
T3 sequence (looked up): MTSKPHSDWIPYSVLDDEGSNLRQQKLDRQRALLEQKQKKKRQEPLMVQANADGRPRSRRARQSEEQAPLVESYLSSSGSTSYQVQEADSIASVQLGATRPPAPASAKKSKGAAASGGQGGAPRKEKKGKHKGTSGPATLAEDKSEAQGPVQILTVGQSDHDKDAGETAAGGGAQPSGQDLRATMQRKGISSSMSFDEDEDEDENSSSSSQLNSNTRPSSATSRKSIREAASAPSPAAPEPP

[4] = target: T1, FLAG-tubby-F (full-length mouse tubby …); experiment: clonal phage on immobilized FLAG-tubby-F, plaque assay
[5] = target: T4, Axl-Fc (Axl extracellular domain fused to human IgG1 Fc fragment) (human); experiment: clonal phage on immobilized Axl-Fc, plaque assay
T4 construct: extracellular domain; Bought (R&D Systems)
T4 sequence (P30530 whole entry, the tested form may be a part): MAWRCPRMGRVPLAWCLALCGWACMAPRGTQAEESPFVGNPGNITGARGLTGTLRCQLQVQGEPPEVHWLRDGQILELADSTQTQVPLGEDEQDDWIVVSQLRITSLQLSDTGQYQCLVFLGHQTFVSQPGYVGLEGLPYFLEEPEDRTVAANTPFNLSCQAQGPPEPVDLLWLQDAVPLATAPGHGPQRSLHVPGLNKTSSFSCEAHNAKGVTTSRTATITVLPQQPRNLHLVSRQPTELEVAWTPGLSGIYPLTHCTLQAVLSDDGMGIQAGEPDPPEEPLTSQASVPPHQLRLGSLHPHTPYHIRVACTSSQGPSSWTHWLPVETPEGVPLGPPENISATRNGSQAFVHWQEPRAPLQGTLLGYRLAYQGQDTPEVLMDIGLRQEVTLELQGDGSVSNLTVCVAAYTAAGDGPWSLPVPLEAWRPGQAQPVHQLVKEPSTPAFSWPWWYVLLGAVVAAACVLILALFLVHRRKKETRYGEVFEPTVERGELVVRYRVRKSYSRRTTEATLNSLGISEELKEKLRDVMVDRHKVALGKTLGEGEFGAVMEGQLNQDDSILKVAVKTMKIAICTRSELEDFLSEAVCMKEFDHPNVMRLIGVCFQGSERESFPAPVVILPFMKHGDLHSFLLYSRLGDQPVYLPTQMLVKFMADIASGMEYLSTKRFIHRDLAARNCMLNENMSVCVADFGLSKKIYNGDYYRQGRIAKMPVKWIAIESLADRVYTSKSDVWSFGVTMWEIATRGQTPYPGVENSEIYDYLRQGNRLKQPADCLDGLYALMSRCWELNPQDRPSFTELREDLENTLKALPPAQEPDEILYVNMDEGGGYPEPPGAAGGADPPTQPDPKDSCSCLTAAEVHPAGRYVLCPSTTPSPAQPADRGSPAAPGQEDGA

B1: GST-tubby-F (GST fused to full-length mouse tubby) (other, UniProt P50586 1-505, looked up)
chain: MTSKPHSDWIPYSVLDDEGSNLRQQKLDRQRALLEQKQKKKRQEPLMVQANADGRPRSRRARQSEEQAPLVESYLSSSGSTSYQVQEADSIASVQLGATRPPAPASAKKSKGAAASGGQGGAPRKEKKGKHKGTSGPATLAEDKSEAQGPVQILTVGQSDHDKDAGETAAGGGAQPSGQDLRATMQRKGISSSMSFDEDEDEDENSSSSSQLNSNTRPSSATSRKSIREAASAPSPAAPEPPVDIEVQDLEEFALRPAPQGITIKCRITRDKKGMDRGMYPTYFLHLDREDGKKVFLLAGRKRKKSKTSNYLISVDPTDLSRGGDSYIGKLRSNLMGTKFTVYDNGVNPQKASSSTLESGTLRQELAAVCYETNVLGFKGPRKMSVIVPGMNMVHERVCIRPRNEHETLLARWQNKNTESIIELQNKTPVWNDDTQSYVLNFHGRVTQASVKNFQIIHGNDPDYIVMQFGRVAEDVFTMDYNYPLCALQAFAIALSSFDSKLACE
notes: mature; Expressed in E. coli BL21(DE3) from pGEX-2T; not shown: glutathione S-transferase of pGEX-2T (Schistosoma japonicum)
B1: no binding [1]; no binding [2].

B2: Zinc finger E-box binding homeobox 1 (Zeb1) 903E-1021E, phage clone (other, mouse, UniProt Q64318 903-1021, looked up)
chain: EHTGKRPHECGICRKAFKHKHHLIEHMRLHSGEKPYQCDKCGKRFSHSGSYSQHMNHRYSYCKRGAEDRDAMEQEDAGPEVLPEVLATEHVGARASPSQADSDERESLTREEDEDSEKE
notes: range 903-1021; Residues are the minimal overlap of 2 independent clones; For Y2H the insert was recloned into pGAD424
B2 was tested, and the “Binding to tubby-N (binding specificity of clonal phage vs. control phage)” value [3] was ~284 X (fold) and the “Binding to tubby-F (binding specificity to FLAG-tubby-F vs. to GFP-FLAG)” value [4] was ~28.7 X (fold).

B3: High mobility group box 2 (Hmgb2) 89K-188E, phage clone (other, mouse, UniProt P30681 89-188, looked up)
chain: KKDPNAPKRPPSAFFLFCSENRPKIKIEHPGLSIGDTAKKLGEMWSEQSAKDKQPYEQKAAKLKEKYEKDIAAYRAKGKSEAGKKGPGRPTGSKKKNEPE
notes: range 89-188; Minimal overlap of 5 independent clones; For Y2H recloned into pGAD424
B3 was tested, and the “Binding to tubby-N (binding specificity of clonal phage vs. control phage)” value [3] was ~312 X (fold) and the “Binding to tubby-F (binding specificity to FLAG-tubby-F vs. to GFP-FLAG)” value [4] was ~21.7 X (fold).

B4: IQ motif containing GTPase activating protein 2 (Iqgap2) 1232E-1368E, phage clone (other, mouse, UniProt Q3UQ44 1232-1368, looked up)
chain: EKSDLLNELLESLGEVPTVESFLGEGAVDPNDPNKENTLNQLSKTEISLSLTSKYDVKDGEAVDGRSLMIKTKKLIIDVTRNQPGSTLTEILETPATGQQELEHAKDMESRAVVDSRTPEEGKQSQAVIEDARLPLE
notes: range 1232-1368
For B4, the “Binding to tubby-N (binding specificity of clonal phage vs. control phage)” value [3] was ~53.2 X (fold) and the “Binding to tubby-F (binding specificity to FLAG-tubby-F vs. to GFP-FLAG)” value [4] was ~1.8 X (fold).

B5: Tubby like protein 1 (Tulp1) 125D-243E, phage clone (other, mouse, UniProt Q9Z273 125-243, looked up)
chain: DDDEEEEEKKEGKKEKSSLPPKKAPKEREKKAKALGPRGDVGSPDAPRKPLRTKKKEVGEGTKLRKAKKKGPGETDKDPAGSPAALRKEFPAAMFLVGEGGAAEKGVKKKGPPKGSEEE
notes: range 125-243; For Y2H recloned into pGAD424
For B5, the “Binding to tubby-N (binding specificity of clonal phage vs. control phage)” value [3] was ~49 X (fold) and the “Binding to tubby-F (binding specificity to FLAG-tubby-F vs. to GFP-FLAG)” value [4] was ~29.1 X (fold).

B6: ATP-binding cassette F1 (Abcf1) 57K-196G, phage clone (other, mouse, UniProt Q6P542 57-196, looked up)
chain: KLQKEKEQQQQQQQQKKKRDTRKGRRKKDVDDDSDERVLMERLKQLSVPASDEEDEVPAPIPRGRKKAKGGNVFEALIQDDSEEEEEEEENRVLKPAKPEKNRINKAVAEEPPGLRSKKGKEEKSKGKAKSKPAAADSEG
notes: Minimal overlap of 2 independent clones; For Y2H recloned into pGAD424
B6 was tested, and the “Binding to tubby-N (binding specificity of clonal phage vs. control phage)” value [3] was ~68.2 X (fold) and the “Binding to tubby-F (binding specificity to FLAG-tubby-F vs. to GFP-FLAG)” value [4] was ~27.2 X (fold).

B7: Structure specific recognition protein 1 (Ssrp1) 486E-619G, phage clone (other, mouse, UniProt Q08943 486-619, looked up)
chain: EEEEDVAEEFDSNASASSSSNEGDSDREEKKREQLKRAKMAKDRKSRRKSSEAKKGKDPNAPKRPMSAYMLWLNASREKIKSDHPGISITDLSKKAGEIWKGMSKEKKEEWDRKAEDARREYEKAMKEYEGGRG
notes: range 486-619; Minimal overlap of 2 independent clones; For Y2H recloned into pGAD424
In the case of B7, the “Binding to tubby-N (binding specificity of clonal phage vs. control phage)” value [3] is reported as ~157 X (fold) and the “Binding to tubby-F (binding specificity to FLAG-tubby-F vs. to GFP-FLAG)” value [4] is reported as ~4.5 X (fold).

B8: Microtubule-associated protein 7 (Mtap7) 23A-114R, phage clone (other, mouse, UniProt O88735 23-114, looked up)
chain: ASDGYKVQEKRTAPSRPTSTVSGQTSNHSGNKPDPPPVLRVDDRQRLARERREEREKQLAARETVWLEREERARQHYERHLEARKKKLEDQR
notes: range 23-114; For Y2H recloned into pGAD424
B8 was tested, and the “Binding to tubby-N (binding specificity of clonal phage vs. control phage)” value [3] was ~3.5 X (fold) and the “Binding to tubby-F (binding specificity to FLAG-tubby-F vs. to GFP-FLAG)” value [4] was ~3.8 X (fold).

B9: Zinc finger protein 609 (Zfp609) 1M-183E, phage clone (other, mouse, UniProt Q8BZ47 1-183, looked up)
chain: MSLSSGACGGKGVDANPVETYDSGDEWDIGVGNLIIDLDADLEKDQQKLEMSGSKEVGIPAPNAVATLPDNIKFVTPVPGPQGKEGKSKSKRSKSGKDASKPTPGTSLFSPSEGAASKKEVQGRAGDGASAGGLVAAVAPKGSEKAAKASRSVAGSKKEKENSSSKGKKERSEGVGTCSEKDP
notes: range 1-183; Minimal overlap of 2 independent clones; For Y2H recloned into pGAD424
B9 was tested, and the “Binding to tubby-N (binding specificity of clonal phage vs. control phage)” value [3] was ~53.2 X (fold) and the “Binding to tubby-F (binding specificity to FLAG-tubby-F vs. to GFP-FLAG)” value [4] was ~2.3 X (fold).

B10: PH181: SPRY domain containing 3 (Spryd3) 31I-215S, phage clone (other, mouse)
chain: IREIREVRAFRYQERFKHILVDGDTLSYHGNSGEVGCYVASRPLTKDSNYFEVSIVDSGVRGTIAVGLVPQYYSLDHQPGWLPDSVAYHADDGKLYNGRAKGRQFGSKCNSGDRIGCGIEPVSFDVQTAQIFFTKNGKRVGSTIMPMSPDGLFPAVGMHSLGEEVRLHLNAELGREDDSVMMVDS
notes: range 31-215; Frequency 8
With B10 the “Binding activity (pfu ratio of clonal phage binding to immobilized Axl-Fc versus blank)” value [5] was ~1e+06 X (fold).

B11: PH194: Growth arrest specific 6 (Gas6) 43Q-148R, phage clone (ligand, mouse, UniProt Q61592 43-148, looked up)
chain: QRRAYQVFEEAKQGHLERECVEEVCSKEEAREVFENDPETEYFYPRYQECMRKYGRPEEKNPDFAKCVQNLPDQCTPNPCDKKGTHICQDLMGNFFCVCTDGWGGR
notes: range 43-148
For B11, the “Binding activity (pfu ratio of clonal phage binding to immobilized Axl-Fc versus blank)” value [5] was ~40 X (fold).

B12: PH207: Microfibrillar-associated protein IA or IB (Mfap1) 160K-290E, phage clone (other)
chain: KNEEMEVMEVEDEGRSGEESESESEYEEYTDSEDEMEPRLKPVFIRKKDRVTVQEREAEALKQKELEQEAKRMAEERRKYTLKIVEEETKKELEENKRSLAALDALNTDDENDEEEYEAWKVRELKRIKRE
notes: Frequency 4; not shown: T7 capsid 10B fusion partner, linker/3C cleavage site and C-terminal biotinylation tag of the phage display construct
For B12, the “Binding activity (pfu ratio of clonal phage binding to immobilized Axl-Fc versus blank)” value [5] was ~36700 X (fold).

B13: CCCTC-binding factor (Ctcf) 136G-400T, phage clone (other, mouse, UniProt Q61164 136-400, looked up)
chain: GAYENEVSKEGLAESEPMICHTLPLPEGFQVVKVGANGEVETLEQGELPPQEDSSWQKDPDYQPPAKKTKKTKKSKLRYTEEGKDVDVSVYDFEEEQQEGLLSEVNAEKVVGNMKPPKPTKIKKKGVKKTFQCELCSYTCPRRSNLDRHMKSHTDERPHKCHLCGRAFRTVTLLRNHLNTHTGTRPHKCPDCDMAFVTSGELVRHRRYKHTHEKPFKCSMCDYASVEVSKLKRHIRSHTGERPFQCSLCSYASRDTYKLKRHMRT
notes: range 136-400; For Y2H recloned into pGAD424
With B13 the “Binding to tubby-N (binding specificity of clonal phage vs. control phage)” value [3] was ~117 X (fold) and the “Binding to tubby-F (binding specificity to FLAG-tubby-F vs. to GFP-FLAG)” value [4] was ~44.9 X (fold).

B14: PC4 and SFRS1 interacting protein 1 (Psip1) 152K-219K, phage clone (other, mouse, UniProt Q99JF8 152-219, looked up)
chain: KAEKQVDTEEAGMVTAATASNVKASPKRGRPAATEVKIPKPRGRPKVVKQPCPSDGDMVIDEDKSKKK
notes: range 152-219; Minimal overlap of 4 independent clones; For Y2H recloned into pGAD424
For B14, the “Binding to tubby-N (binding specificity of clonal phage vs. control phage)” value [3] was ~196 X (fold) and the “Binding to tubby-F (binding specificity to FLAG-tubby-F vs. to GFP-FLAG)” value [4] was ~24 X (fold).
